Measurements reported in patent publication US11351270B2, “Junctophilin-2 fragments and uses therefor” (University of Iowa Research Foundation, priority 2016, dated 2022).
Peptide text beside a SMILES is read from it. * marks the point of attachment. Cbz = O=C(OCc1ccccc1)*; CH2F = FC*

Key:
[1] = molecular target: T1, human calpain I (Homo sapiens, UniProt P07384); assay: In vitro calpain-mediated proteolysis reaction; assay type: biochemical; conditions: for JP2 degradation by calpain I: WT mouse heart lysates, 3 mM free Ca2+, Z-LLY-FMK 20 μM, EDTA 5 mM
T1 construct: purchased Calbiochem
T1 sequence (P07384 1-714): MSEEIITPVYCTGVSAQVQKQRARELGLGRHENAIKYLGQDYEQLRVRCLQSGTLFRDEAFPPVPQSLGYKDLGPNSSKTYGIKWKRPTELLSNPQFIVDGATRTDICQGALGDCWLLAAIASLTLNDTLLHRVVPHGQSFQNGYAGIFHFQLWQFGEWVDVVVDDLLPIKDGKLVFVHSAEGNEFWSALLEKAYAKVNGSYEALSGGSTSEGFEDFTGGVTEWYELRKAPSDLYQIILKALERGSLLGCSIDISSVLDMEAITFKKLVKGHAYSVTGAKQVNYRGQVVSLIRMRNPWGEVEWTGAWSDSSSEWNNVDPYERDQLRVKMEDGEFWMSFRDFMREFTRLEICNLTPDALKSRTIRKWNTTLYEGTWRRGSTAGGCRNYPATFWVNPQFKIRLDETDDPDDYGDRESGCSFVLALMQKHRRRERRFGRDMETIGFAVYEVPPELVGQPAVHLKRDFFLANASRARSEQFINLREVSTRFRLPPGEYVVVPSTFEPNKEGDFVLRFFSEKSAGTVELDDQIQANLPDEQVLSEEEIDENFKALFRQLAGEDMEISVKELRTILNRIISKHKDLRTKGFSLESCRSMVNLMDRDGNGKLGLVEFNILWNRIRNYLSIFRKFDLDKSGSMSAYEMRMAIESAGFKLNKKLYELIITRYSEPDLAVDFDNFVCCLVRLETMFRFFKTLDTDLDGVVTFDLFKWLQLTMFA
T1 sequence (P04632 1-268 partner): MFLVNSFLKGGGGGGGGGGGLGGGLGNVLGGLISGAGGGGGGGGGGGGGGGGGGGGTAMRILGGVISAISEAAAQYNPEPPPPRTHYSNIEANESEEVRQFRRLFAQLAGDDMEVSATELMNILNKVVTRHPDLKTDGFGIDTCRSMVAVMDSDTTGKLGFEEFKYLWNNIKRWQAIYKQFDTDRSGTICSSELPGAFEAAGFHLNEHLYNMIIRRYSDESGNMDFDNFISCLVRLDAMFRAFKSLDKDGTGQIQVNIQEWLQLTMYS
Description: Mouse and human heart tissues as well as HEK 293T cells (obtained from the ATCC and cultured according to the protocol of the manufacturer) overexpressing tagged JP2 were washed with PBS and homogenized in lysis buffer (20 mM Tris-HCl, 150 mM NaCl, 2 mM EDTA, and 1% Triton X-100), followed by sonication. Homogenates were centrifuged for 10 minutes at 14,000 rpm at 4° C. Protein content in the supernatant was determined using the BCA assay (Thermo Scientific). Cell extracts were diluted in ice-cold calpain reaction buffer (135 mM NaCl, 5 mM KCl, 1 mM MgCl2, 10 mM glucose, 10 mM Hepes (pH 7.25), 2 mM lactacystin, and 10 mM 2-mercaptoethanol) to a concentration of 4 mg protein/ml. Just prior to starting the protease reaction, CaCl2 was added to achieve a final concentration of 3 mM free Ca^2+ (in the presence of EDTA), as calculated by winmaxc32 (Stanford University). For some experiments, the free Ca^2+ concentration was adjusted to 500 μM, as calculated by winmaxc32. Purified human calpain I (Calbiochem) was added at a concentration of 1 mg of total protein/1 μg of calpain I. Reactions without Ca^2+ or without purified calpain I were used as controls. Reactions were incubated at 30° C. for the indicated time and stopped by adding EDTA to a final concentration of 10 mM and incubating for 5 minutes at 95° C. The reaction products were subjected to Western blotting.

[2] = test system: TATA box DNA sequences; assay: Gel shift assay with TATA box sequences; assay type: binding; conditions: GST-purified protein; cMyc or CMV promoter sequences
From the text: FIGS. 11A-H. JP2NT is a TATA-box binding protein enriched at transcription start site (TSS) and interacts with basic transcription machinery. […] C) 293T cells were transfected with HA-tagged JP2NT, followed by crosslinking-reversal immunoprecipitation with anti-HA and immunoblotting with anti-polymerase II (Rpb1) or anti-TATA box binding protein (TBP). D-H) JP2NT binds to TATA box DNA sequences in vitro. D-E) Gel shift assays of GST-purified JP2NT binding to WT (D). or mutated TATA box-containing sequences (E) derived from the cMyc promoter. F) Summary of the results of gel shift assays with various of TATA box variants or mutants. Mutation of the core TATA sequences abolished the interaction with GST-JP2NT. G) Deletion of the ARR, but not the N-terminal MORN domains, eliminated JP2NT binding to the TATA box sequence. H) The peptide JP2^331-405 containing the ARR specifically binds to WT TATA box sequence.
TBP specifically binds to TATA boxes, eukaryotic core cis-regulatory elements localized at transcription start site. […] This interaction was abrogated by mutation of the TATA box elements (FIGS. 11E&G and 17B). It was concluded that JP2NT is a DNA binding protein, binding to consensus TATA box represented as TATAA(A/T) or TATATA (FIG. 11F).

[3] = test system: MEF2C Response Element (MRE) from the desmin enhancer; assay: Gel shift assay with MEF2 response element; assay type: binding; conditions: purified protein
From the text: FIGS. 12A-E. JP2NT represses MEF2-mediated transcription by competing for the MEF2 Response Element (MRE). A) Enrichment of MEF2 binding motifs in ChIP-seq dataset. B) Gel shift assay of JP2NT binding to a desmin promoter-derived DNA sequence containing a WT or mutated MRE in vitro. C) Co-immunoprecipitation of HA-tagged JP2NT binding to MEF2C or Histone H3. D) & E) MEF2 activity assays in 293T cells co-transfected with luciferase under the control of an MRE, MEF2C and WT JP2NT (D) or a mutant lacking the ARR (E, JP2NT^ΔARR). n≥3 independent batches of cells; in each batch of experiments, 3 replicates were performed for each transfection; **p<0.01 vs. Ad-Empty.
The MEF2 family, master regulators of hypertrophic genes in cardiomyocytes, binds to the A/T enriched consensus sequence (C/TTA(A/T)4TA G/A), which shares the same core sequence with TATA box. Thus, it was hypothesized that JP2NT directly interacts with MEF2 binding sites.

[4] = test system: RyR2 and Cav1.2; assay: Coimmunoprecipitation with E-C coupling channels; assay type: binding, mouse; conditions: anti-HA immunoprecipitation
From the text: FIGS. 5A-H. JP2 truncations are nonfunctional in regulating Ca^2+ transients. A) An antibody against the HA tag was used to reveal the localization of adenoviral expression of tagged full-length JP2 and truncations, as indicated, in adult wild-type cardiomyocytes. All the three version of JP2 can be localized in the striated pattern. B) Full-length JP2 and JP2(1-565) forms complexes with RyR2 and Cav1.2 In vivo. An antibody against HA was used for immunoprecipitation […]. The RyR2 and Cav1.2 that were pulled down were detected by Western blot analysis. […] IB, immunoblot. C) Adenovirus-mediated expression of full-length JP2, FLAG-JP2(1-565)-HA, and JP2(566-end)-HA in JP2-KD) cardiomyocytes. D) Representative steady-state Ca^2+ transients under 1-Hz field stimulation. The fluorescence intensity (F) of Ca^2+ imaging was normalized to the baseline (FO). The red lines overlapping on Ca^2+ imaging show the profile of the moment of Ca^2+ transient firing on the scanning line in a point-by-point way. A straighter line means better synchronization of the Ca^2+ transients. Note that expression of full-length JP2, but not JP2 truncations, improves the amplitude and synchronization of Ca^2+ transients. E-G) Summary of Ca^2+ transient amplitude, index of desynchronization (mean absolute deviation of firing time), and duration of 50% decay (T5) (n=68, 70, 70, and 52 for Ad-Empty, Ad-JP2, […], and Ad-JP2(566-end), respectively). Only full-length JP2 Improves the amplitude, synchronization, and decay of Ca^2+ transients. H) Summary of SR Ca^2+ content, which was assessed by caffeine-induced SR Ca^2+ release (n=17, 17, 17, and 12 for Ad-Empty, Ad-JP2, Ad-JP2(1-565), and Ad-JP2(566-end), respectively). **, p<0.01 versus indicated groups; N.S., not significant.
Cleavage at the primary calpain proteolysis site (Arg-565/Thr-566) splits apart the C-terminal SR-binding TM domain and N-terminal plasma membrane-binding MORN domains of JP2. […]

[5] = test system: JP2-KD cardiomyocytes; assay: Confocal Ca2+ imaging in JP2-KD cardiomyocytes after adenoviral expression; assay type: cell-based, mouse; conditions: 1-Hz field stimulation
From the text: Specifically, conditional shJP2 mice (provided by Dr. Wehrens) (van Oort et al., 2011) were crossed with mice carrying the cardiac-specific α-myosin heavy chain promoter upstream of Cre (% MHC-Cre, also FVB-Tg(Myh6-cre)2182Mds/J, The Jackson Laboratory). The shJP2 mice were maintained on a C57BL/6 background for more than 10 generations. The αMHC-Cre mice were maintained on an FVB background. PCR was used to genotype the offspring. The near complete depletion of JP2 protein in JP2-KD (αMHC-Cre X shJP2) hearts has been reported recently (Chen et al., 2013). JP2-KD mice were sacrificed at 2 months of age for isolation and culture of ventricular cardiomyocytes as described below.
Genecarrior-1 (Epoch Lab) was used to transfect plasmids into HEK293T cells. Isolation and culture of cardiomyocytes were performed as described previously (Guo et al., 2012). […] Ca^2+ Imaging experiments were performed 40 hours after adenoviral infection.
Cells were loaded with Rhod-2AM at 37° C. for 20 minutes, followed by washing with Tyrode's solution at room temperature for 15 minutes before Ca^2+ imaging. Confocal images were acquired using a ×63, 1.3 numerical aperture oil immersion objective mounted on a Zeiss LSM 510 confocal microscope. Confocal line scanning was used to record Ca^2+ signals. Steady-state Ca^2+ transients were recorded in Tyrode's solution containing 1.8 mM Ca^2+ under field stimulation of 1 Hz. At least five steady-state transients for each cell were analyzed and averaged to represent Ca^2+ signals of the cell. Ca^2+ imaging data were analyzed by using a home-complied software, CaTeasy, which is coded in MATLAB 2013a (Mathworks). Briefly, the program normalizes Ca^2+ transient images on a column-by-column basis (512 columns/image). The characteristic parameters of normalized transients were detected automatically. The firing time of every scanning pixel was detected column by column on the basis of the maximum local variability of pixel intensity. The profile of the point-to-point firing time was indicated by a red line overlapping on the Ca^2+ image. Index of desynchronization, defined by the mean absolute deviation of firing time of each scanning pixel (with every 8 pixels binned), was used to evaluate the dyssynchrony of Ca^2+ transients. This automated software for calcium transient analysis is available upon request.

CC(C)CC(NC(=O)OCc1ccccc1)C(=O)NC(CC(C)C)C(=O)NC(Cc1ccc(O)cc1)C(=O)CF (stereo not drawn) [Z-LLY-FMK] (Cbz-Leu-Leu-Tyr-CH2F; configuration not given here)
JP2 degradation by calpain I [1]: inhibited JP2 degradation | JP2 cleavage products and full-length JP2 ([1]; lysates of 293T cells overexpressing FLAG/HA-tagged JP2, 3 mM and 500 μM Ca2+): substantial reduction in cleavage products and preservation of full-length JP2

O=C(O)CN(CCN(CC(=O)O)CC(=O)O)CC(=O)O [EDTA]
JP2 degradation by calpain I [1]: inhibited JP2 degradation

B1: GST-JP2^331-405: purified peptide containing the ARR; DNA binding domain of JP2NT (protein, UniProt Q9ET78 331-405, looked up, fragment)
chain: EEGKYRHNVLVKGTKRRVLPLKSSKVRQKVEHGVEGAQRAAAIARQKAEIAASRTSHAKAKAEAAEQAALAANQE
modifications: GST tag
binding to TATA box [2]: specifically bound to the consensus but not mutant TATA box | interaction with MEF2C Response Element (MRE) [3]: interacts

B2: JP2(566-end): C-terminal JP2 truncation, tagged with HA at the C terminus (protein)
chain: TGPPEPPPLEDEQEPEPEPEPEVRRSDSAPPSPVSATVPEEEPPAPRSPVPAKQATLEPKPIVPKAEPKAKARKTEARGLSKAGAKKKGRKEVAQAKEAEVEVEEVPNTVLICMVILLNIGLAILFVHLLTYPYDVPDYA
interaction with RyR2 and Cav1.2 [4]: not | restoration of Ca2+ transients [5]: failed to restore
